# Assay results: paper PMC12234153
# Target: STAT3 (UniProt P42227)
# Assay: anti-FLAG co-IP, anti-HA blot
# Details: reference: wild type SMAD2-FLAG; sites S255
substance,measurement,value
SMAD2 (from UniProt Q15796) S255A,binding against the reference,weaker
